Source: US20180011102
Residue numbers refer to the chain shown, from its start. Names and notes keep the numbering of the source.

T1: purified wild-type CDC45, O75419
T1 chain: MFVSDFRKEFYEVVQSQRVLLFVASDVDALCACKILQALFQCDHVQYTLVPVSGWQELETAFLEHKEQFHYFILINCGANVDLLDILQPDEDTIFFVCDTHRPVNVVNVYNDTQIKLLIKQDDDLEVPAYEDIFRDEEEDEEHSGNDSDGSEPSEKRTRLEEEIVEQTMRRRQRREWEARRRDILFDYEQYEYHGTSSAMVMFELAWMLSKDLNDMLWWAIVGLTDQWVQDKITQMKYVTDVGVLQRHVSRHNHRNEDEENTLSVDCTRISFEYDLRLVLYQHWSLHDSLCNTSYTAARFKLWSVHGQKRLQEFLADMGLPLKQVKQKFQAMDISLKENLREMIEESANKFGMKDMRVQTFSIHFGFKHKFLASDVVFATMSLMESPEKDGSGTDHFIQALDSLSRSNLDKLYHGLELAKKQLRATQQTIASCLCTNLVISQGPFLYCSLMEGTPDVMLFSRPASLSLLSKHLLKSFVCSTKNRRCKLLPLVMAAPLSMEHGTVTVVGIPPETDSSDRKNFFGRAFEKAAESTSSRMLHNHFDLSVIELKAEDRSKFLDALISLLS

T2: purified CDC45 S386A, O75419
T2 chain: T1 chain with S386A

B1: His-PGK1 (wild type), bacterially purified, not phosphorylated (protein)
chain: MSLSNKLTLDKLDVKGKRVVMRVDFNVPMKNNQITNNQRIKAAVPSIKFCLDNGAKSVVLMSHLGRPDGVPMPDKYSLEPVAVELKSLLGKDVLFLKDCVGPEVEKACANPAAGSVILLENLRFHVEEEGKGKDASGNKVKAEPAKIEAFRASLSKLGDVYVNDAFGTAHRAHSSMVGVNLPQKAGGFLMKKELNYFAKALESPERPFLAILGGAKVADKIQLINNMLDKVNEMIIGGGMAFTFLKVLNNMEIGTSLFDEEGAKIVKDLMSKAEKNGVKITLPVDFVTADKFDENAKTGQATVASGIPAGWMGLDCGPESSKKYAEAVTRAKQIVWNGPVGVFEWEAFARGTKALMDEVVKATSRGCITIIGGGDTATCCAKWNTEDKVSHVSTGGGASLELLEGKVLPGVDALSNI
B2: purified PGK1 T378P kinase-dead mutant (protein)
chain: B1 chain with T378P

Experiments:
[1] = target: T1, purified wild-type CDC45, O75419
[2] = target: purified Beclin-1 S30A mutant, Q14457
[3] = target: purified PDHK1 T338A (pE-SUMO PDHK1 T338A), Q15118
[4] = target: SUMO-PDHK1 (wild type), bacterially purified, Q15118
[5] = target: purified PDHK1 S337A, Q15118
[6] = target: purified wild-type Beclin-1, Q14457
[7] = target: T2, purified CDC45 S386A, O75419

SUMO-PDHK1 (wild type), bacterially purified, Q15118, sequence (Q15118 whole entry, looked up): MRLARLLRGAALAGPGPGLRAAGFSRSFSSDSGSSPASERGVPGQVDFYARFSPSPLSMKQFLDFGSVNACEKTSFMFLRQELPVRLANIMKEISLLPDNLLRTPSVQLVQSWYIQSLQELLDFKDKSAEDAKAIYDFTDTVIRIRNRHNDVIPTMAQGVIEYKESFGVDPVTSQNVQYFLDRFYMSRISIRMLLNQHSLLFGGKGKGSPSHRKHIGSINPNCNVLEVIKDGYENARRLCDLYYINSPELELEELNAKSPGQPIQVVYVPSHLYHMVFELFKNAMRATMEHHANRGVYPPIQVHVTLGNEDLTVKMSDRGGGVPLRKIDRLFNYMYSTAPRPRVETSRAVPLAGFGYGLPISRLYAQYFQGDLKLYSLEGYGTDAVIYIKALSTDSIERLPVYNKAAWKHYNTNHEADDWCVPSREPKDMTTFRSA
purified PDHK1 T338A (pE-SUMO PDHK1 T338A), Q15118, sequence (Q15118 whole entry T338A): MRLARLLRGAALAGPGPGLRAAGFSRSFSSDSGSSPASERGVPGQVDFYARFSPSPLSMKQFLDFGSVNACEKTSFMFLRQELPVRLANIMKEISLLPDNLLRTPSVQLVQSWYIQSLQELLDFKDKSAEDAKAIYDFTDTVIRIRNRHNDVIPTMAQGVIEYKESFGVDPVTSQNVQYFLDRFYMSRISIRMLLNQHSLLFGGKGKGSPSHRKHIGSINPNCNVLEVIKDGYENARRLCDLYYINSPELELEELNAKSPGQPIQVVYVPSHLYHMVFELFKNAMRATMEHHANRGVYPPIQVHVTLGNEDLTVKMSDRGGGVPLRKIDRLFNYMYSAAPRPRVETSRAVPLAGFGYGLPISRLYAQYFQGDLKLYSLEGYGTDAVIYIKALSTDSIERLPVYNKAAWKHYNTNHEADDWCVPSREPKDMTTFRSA
purified wild-type Beclin-1, Q14457, sequence (Q14457 whole entry, looked up): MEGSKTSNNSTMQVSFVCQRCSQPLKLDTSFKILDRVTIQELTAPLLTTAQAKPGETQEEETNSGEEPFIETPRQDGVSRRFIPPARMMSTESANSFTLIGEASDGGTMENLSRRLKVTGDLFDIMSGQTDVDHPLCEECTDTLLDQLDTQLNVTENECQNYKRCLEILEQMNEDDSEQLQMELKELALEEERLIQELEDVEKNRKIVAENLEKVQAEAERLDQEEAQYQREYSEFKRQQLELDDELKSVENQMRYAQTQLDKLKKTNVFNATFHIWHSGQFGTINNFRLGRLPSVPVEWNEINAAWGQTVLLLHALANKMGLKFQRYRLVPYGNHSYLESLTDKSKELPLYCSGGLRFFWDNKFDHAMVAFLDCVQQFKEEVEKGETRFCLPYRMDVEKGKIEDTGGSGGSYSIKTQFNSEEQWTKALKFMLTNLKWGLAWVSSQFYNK
purified Beclin-1 S30A mutant, Q14457, sequence (Q14457 whole entry S30A): as the sequence (Q14457 whole entry, looked up) above, with S30A counted along it
purified PDHK1 S337A, Q15118, sequence (Q15118 whole entry S337A): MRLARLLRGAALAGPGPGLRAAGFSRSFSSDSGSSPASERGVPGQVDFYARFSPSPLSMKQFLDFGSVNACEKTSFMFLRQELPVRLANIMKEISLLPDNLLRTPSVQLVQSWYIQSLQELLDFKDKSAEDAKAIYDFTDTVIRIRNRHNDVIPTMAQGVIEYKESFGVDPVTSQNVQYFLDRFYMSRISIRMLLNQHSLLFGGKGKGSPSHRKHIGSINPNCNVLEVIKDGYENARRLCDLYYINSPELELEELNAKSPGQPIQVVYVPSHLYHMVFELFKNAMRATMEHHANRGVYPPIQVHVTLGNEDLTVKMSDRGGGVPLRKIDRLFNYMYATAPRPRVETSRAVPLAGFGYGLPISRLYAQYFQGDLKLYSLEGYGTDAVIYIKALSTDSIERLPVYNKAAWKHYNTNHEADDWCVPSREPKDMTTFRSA

| Protein | in vitro phosphorylation with [γ32P]-ATP, autoradiography and Western blot [1] | in vitro phosphorylation with [γ32P]-ATP, autoradiography and Western blot [2] | in vitro phosphorylation with [γ32P]-ATP, autoradiography and anti-phospho-PDHK1 T338 antibody [3] | in vitro phosphorylation with [γ32P]-ATP, autoradiography and anti-phospho-PDHK1 T338 antibody [4] | in vitro phosphorylation with [γ32P]ATP, autoradiography [5] | in vitro phosphorylation with [γ32P]-ATP, autoradiography and Western blot [6] | in vitro phosphorylation with [γ32P]-ATP, autoradiography and Western blot [7] |
| --- | --- | --- | --- | --- | --- | --- | --- |
| B1 | Purified wild-type PGK1 but not PGK1 kinase-dead (KD) mutant phosphorylated purified wild-type CDC45, but not CDC45 S386A | Beclin-1 S30A mutant was largely resistant to phosphorylation by PGK1 | WT PGK1, but not a PGK1 T378P kinase-dead mutant, was able to phosphorylate WT PDHK1, but not PDHK1 T338A | WT PGK1, but not a PGK1 T378P kinase-dead mutant, was able to phosphorylate WT PDHK1, but not PDHK1 T338A | mutation of the adjacent PDHK1 S337A had no effect on PGK1-mediated PDHK1 phosphorylation | Purified PGK1 phosphorylated purified wild-type Beclin-1 | Purified wild-type PGK1 but not PGK1 kinase-dead (KD) mutant phosphorylated purified wild-type CDC45, but not CDC45 S386A |
| B2 | Purified wild-type PGK1 but not PGK1 kinase-dead (KD) mutant phosphorylated purified wild-type CDC45, but not CDC45 S386A | – | – | WT PGK1, but not a PGK1 T378P kinase-dead mutant, was able to phosphorylate WT PDHK1, but not PDHK1 T338A | – | – | – |
